Laboratory results reported in the supplement of paper PMC7125110.
± gives the standard error. Variants at the floor of the assay were thinned out.

B1: glmS ribozyme (parent)
chain: AUAAAAGCGCCAGAACUACAGAAAUGUAGUUGACGAGGAGGAGGUUUAUCGAAUUUUCGGCGGAUGCCUCCAAA

Variants of: B1
Test: self-cleavage kobs at 10000 uM GlcN6P; higher = faster cleavage; RNA array
Conditions: with glucosamine-6-phosphate
Procedure, shortened: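 Glucosamine-6-phosphate, from 40 μM to 10 mM in HEPES/KCl/Mg(OAc)2 buffer, was flowed over sequenced MiSeq chips carrying barcoded ribozyme variants transcribed in situ by E. coli RNA polymerase. A hybridised Cy3 probe tracked the variants at 37 °C as tiles were imaged over ~14 h. kobs, kcat and KM were obtained by fitting normalised per-tile medians to exponential decays and then applying weighted Michaelis–Menten fits across concentrations.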

Variant	self-cleavage kobs at 10000 uM GlcN6P [s⁻¹]
AUAAAAGCGCCAGUACUACAGAAAUGUAGUUGACGAGGAGGAGGUUUAUCGACUUUUCGGCGGAUGUCUCCAAA [A14U A53C C67U]	0.000208 ± 3.8e-05
AUAAAAGCGCCAGUACUACAGAAAUGUAGUUGACGAGGAGGAGGUUUAUGGAAUUUUCGGCAGGUGCCUCCAAA [A14U C50G G62A A64G]	0.000115 ± 2.4e-05
AUAAAAGCGCCAGUACUACAGAAAUGUAGUUGACGAGGAGGAGGUUUAUCGAAUCUUCGGCGGAUGACUAUAAA [A14U U55C C67A C70A C71U]	< 1e-05
AUAAAAGCGCCAGAAAUACAGAAAUGUAGUUGACUAGGAGGAGGUUUAUCGAAUUUUCGUCGGAUGCCUCCAAA [C16A G35U G60U]	< 1e-05
AUAAAAGCGCCAGAAUUACAGAAAUGUAGUUGACGAGGAGGAGGUUUAUGGAAUUUUCGGCGGAUGUCUCCAAA [C16U C50G C67U]	0.000119 ± 2.9e-05
AUAAAAGCGCCAGGACUACAGAAAUGUAGUUGACGAGGAGGAGGUUAAUCGAAUUUUCUGCGGAUGCCUUCAAA [A14G U47A G59U C70U]	9.51e-05 ± 1.8e-05
AUAAAAGCGCCAGAAGUACAGAAAUGUAGUUGACGAGGAGGAGGUUAAUCGAAUUAUCGGCGGAGGCCUCCAAA [C16G U47A U56A U65G]	0.000338 ± 9.1e-05
AUAAAAGCGCCAGAACUACAGAAAUGUAAUUGACGAGGAGGAGGUUUAUCGAAUUUUCGGCGGGUGGCUCCAAA [G29A A64G C67G]	5.14e-05 ± 2e-05
AUAAAAGCGCCAGUAGUACAGAAAUGUAGUUAACGAGGAGGAGGUUUAUCGAAUUGUCGGCGGAUGCCUCCAAA [A14U C16G G32A U56G]	0.000337 ± 5e-05
AUAAAAGCGCCAGAUCUACAGAAAUGUAGUUGCCGAGGAGGAGGUUUAUCGAAUUUUAGGCGGAUGCAUCCAAA [A15U A33C C58A C68A]	< 1e-05
AUAAAAGCGCCAGUACUACAGAAAUGUAGUUGACGAGGCGGAGGUUUAUCGAAUUUUCGGCGGACGCCUCCAAA [A14U A39C U65C]	6.04e-05 ± 1.6e-05
AUAAAAGCGCCAGAACUACAGAAAUUUAGUUGACGAGGAGGAGGUUUAUCGAAUUUUCGGCGGAUGCCACCAAA [G26U U69A]	6.81e-05 ± 2.1e-05
AUAAAAGCGCCAGGACUACAGAAAUGUAGUUGACGAGGAGGAGGUUUAUCGAAAUUUCGGCGGAUGCCUGCAAA [A14G U54A C70G]	0.000124 ± 2.6e-05
AUAAAAGCGCCAGAGCUACAGAAAUGUAGUUGACGAGGAGGAGGUUUAUCGAAUUUUCGGCGUGUGCCUCCAAA [A15G G63U A64G]	< 1e-05
AUAAAAGCGCCAGAAGUACAGAAAUGUAAUUGACGAGGAGGAGGUUUAUCGAAUUUUCGGCGGAUGACUCCAAA [C16G G29A C67A]	0.000261 ± 8.9e-05
AUAAAAGCGCCAGAAAUACAGAAAUGUAGUUGACGAGGAGGAGGUUUAUCGAAUUUUCGGCGGGUGGCUUCAAA [C16A A64G C67G C70U]	< 1e-05
AUAAAAGCGCCAGAGCUACAGAAAUGUACUUGACGAGGAGGAUGUUUAUCGAAUUUUCGUCGGAUGCCUCCAAA [A15G G29C G43U G60U]	< 1e-05
AUAAAAGCGCCAGAGCUACAGAAAUGUAGUUCACGAGGAGGAGGUUUAUCGAAUUUUCCGCGGAUGCCUCCAAA [A15G G32C G59C]	< 1e-05
AUAAAAGCGCCAGAACUACAGAAAUGUAAUUGUCGAGGAGGAGGUUUAUCGAAUUUUCGGCGGAUGCCUCCAAA [G29A A33U]	3.01e-05 ± 5.5e-06

Variant	self-cleavage kobs at 10000 uM GlcN6P [s⁻¹]
AUAAAAGCGCCAGUACUACAGAAAUGUAGUUGACGCGGAGGAGGUUUGUCGAAUUUUCGGUGGAUGCCUCCAAA [A14U A36C A48G C61U]	< 1e-05
AUAAAAGCGCCAGAAUUACAGAAAUGUACUUGACUAGGGGGAGGUUUAUCGAAUUUUCGGCGGAUGCCUCCAAA [C16U G29C G35U A39G]	< 1e-05
AUAAAAGCGCCAGAAAUACAGAAAUGUAGUUGACCAGGAGGAGGUUUAUCGAAUUUUCGGCGGCUGCCUCCAAA [C16A G35C A64C]	< 1e-05
AUAAAAGCGCCAGAAAUACAGAAAUGUAGUUGACGAGGAGAAGGUUUAUCCAAUUUUCGGCGGAUGCCUCCAAA [C16A G41A G51C]	< 1e-05
AUAAAAGCGCCAGAAAUACAGAAAUGUAGUUGACGAGGAGGAGGUUUAUAGAAUUUUCGGCGGAGGCCUCCAAA [C16A C50A U65G]	< 1e-05
AUAAAAGCGCCAGAUGUACAGAAAUGUAGUUCACGAGGAGGAGGUUUAUCGAAUUUUCGGCGGAUGCCUCCAAA [A15U C16G G32C]	8.84e-05 ± 2.6e-05
AUAAAAGCGCCAGAAAUACAGAAAUGUAGUUUUCGAGGAGGAGGUUUAUGGAAUUUUCGGCGGAUGUCUCCAAA [C16A G32U A33U C50G C67U]	0.000275 ± 9.8e-05
AUAAAAGCGCCAGACCUACAGAAAUGUAGUUGUCGAGGAGGAGGUUCAUCGAAUUUGCGGCGGAUGCUCCCAAA [A15C A33U U47C U57G C68U U69C]	< 1e-05
AUAAAAGCGCCAGACCUACAGAAAUGUAGUUGACCAGGAGGAGGUUUAUGGAAUUUUCGGCGGAUGCCUCCAAA [A15C G35C C50G]	4.99e-05 ± 1.2e-05
AUAAAAGCGCCAGUACUACAGAAAUGUAGUUGACGAGGAGGAGGUUUCUCGAAUUGUCGGCGGAUGCAUCCAAA [A14U A48C U56G C68A]	< 1e-05
AUAAAAGCGCCAGAAAUACAGAAAUGUAGUUGACGAGGAGGAGAUUUAUCGAAUUUUCGGCGGAUGACUCCAAA [C16A G44A C67A]	9.58e-05 ± 2.5e-05
AUAAAAGCGCCAGAACUCCAGAAAUGUAGUUGACGAGAAGGAGGUUUAUUGAAUUUUUUGCGGAUGCCUCCAAA [A18C G38A C50U C58U G59U]	< 1e-05
AUAAAAGCGCCAGUACUACAGAAAUGUAGUUGAUGAGGAGGAGGUUUAUCGAAUUUUCGGCGGAUGCGUCCAAA [A14U C34U C68G]	7.15e-05 ± 2.1e-05
AUAAAAGCGCCAGAAGUACAGAAAUGUAGUUUACGAGGAGGAGGUUUAUCGAAUUUUCGGCGGAUGCCUUCAAA [C16G G32U C70U]	0.000712 ± 0.00013
AUAAAAGCGCCAGAGCUACAGAAAUGUAGUUGACGAGGAGGAGGUUUAUCGGAUUUUCGGCGGAUGUCUCGAAA [A15G A52G C67U C71G]	4.89e-05 ± 1.3e-05
AUAAAAGCGCCAGAGCUACAGAAAUGUAGUUGACGAGGAGGAGGUUUAACGAAUUUUCGGCUGAUGCCUCCAAA [A15G U49A G62U]	< 1e-05
AUAAAAGCGCCAGACCUACAGAAAUGUAGUUGACGCGGAGGAGGUUUAUCGAAUUUUCGGCGGAUGACUCCAAA [A15C A36C C67A]	< 1e-05
AUAAAAGCGCCAGAGCUACAGAAAUGUAGUUGACGAGGAGGAGGUUUAUCGAAUUUUCGGCGGACGUCUCCAAA [A15G U65C C67U]	7.42e-05 ± 1.7e-05
